Molecular target: S-peptide S-peptide (Bos taurus, UniProt P61823)
Assay: ITC

Chain of S-peptide S-peptide (P61823 27-46): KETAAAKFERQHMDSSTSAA

B1: RNase S-protein S-protein (protein)
chain: SSSNYCNQMMKSRNLTKDRCKPVNTFVHESLADVQAVCSQKNVACKNGQTNCYQSYSTMSITDCRETGSSKYPNCAYKTTQANKHIIVACEGNPYVPVHFDASV
Q: For B1, which Kd is on record?
A: Its Kd is 130 nM.
